From article PMC9144876 (Protein Science : A Publication of the Protein Society, 2022)

Biological target: extracellular domain of SARS‐CoV‐2 spike protein (ECD) (SARS‐CoV‐2, UniProt P0DTC2 14-1213)
Experiment: ELISA

B1: h‐deface2 (designed binder)
chain: EFHGPSWCLTPADRGLCRANENRFYYNSVIGKCRPFKYSGCGGNENNFTSKDKCLHECKKG
B1 showed a Kd of 54.4 nM.
